In US20070059756A1, “Immunointeractive molecules and their uses in treating subjects suffering from Hev b 5 allergies” (priority 1999, published 2007):

Assays:
[1] = tested on: latex specific T cell lines; assay: Oligoclonal T cell proliferation assay (3H-thymidine incorporation); format: cell-based, human; conditions: for Oligoclonal proliferative response: antigen 10 μg/ml, 4 day cultures
Description: (§1) Latex specific T cell lines were isolated using our well established methods for the generation of allergen specific oligoclonal T cell populations (O'Hehir et al., 1987). An initial primary culture was performed for each patient to determine the optimal concentration of LAL for stimulation. For this, peripheral blood mononuclear cells (PBMC) separated from heparinised venous blood by density centrifugation (2×10^5/well) were stimulated with LAL over a concentration range 0.03 to 100 μg/ml, with control cultures of PBMC alone or stimulated with tetanus toxoid. All cultures were maintained in complete medium (RPMI-1640, Gibco Life Technologies supplemented with 2 mmol/L L-glutamine, 100 IU/ml penicillin-streptomycin and 5% screened, heat inactivated human AB serum [Sigma]). […] Therefore, to generate T cell lines, PBMC (2.5×10^6/well) were stimulated for 1 week with LAL at a concentration of 20 μg/ml in 24-well tissue culture plates (Costar, USA). After 7 days, lymphoblasts (1×10^6/well) were restimulated for one week with LAL at a concentration of 20 μg/ml in the presence of an equal number of irradiated (3000 rad) autologous PBMC as antigen presenting cells (APC). On days 2 and 4, cultures were supplemented with Lymphocult-T (5% v/v; Biotest Folex, Germany) and fresh medium. At the end of the second week, lymphoblasts were restimulated for one week with rhev b 5/MBP at a concentration of 20 μg/ml as described above. Oligoclonal T cells were recovered, washed and tested in proliferation and cytokine assays (as described below) either fresh or after cryopreservation in liquid nitrogen. We have previously shown that CD4^+ T cells are preferentially expanded in these cultures.
Oligoclonal T cell blasts (5×10^4) were incubated in 96-well round bottom plates (Linbro, ICN Biomedicals, USA) in triplicate with equal numbers of irradiated APC in the presence of LAL at concentrations ranging from 0.03-100 μg/ml, rHev b 5/MBP (10 and 20 μg/ml), MBP (10 and 20 μg/ml), overlapping peptides of the Hev b 5 sequence (10 and 30 μg/ml), Lymphocult-T (10 IU/ml) or PHA (3 μg/ml). Cultures of T cells and APC in the absence of antigen, T cells alone and APC alone in the absence of antigen were included as controls. After 72 hours cultures were pulsed with 1 μCi of ^3H-thymidine (^3HTdR; Du Pont, NEN) and harvested 12-16 hours later. Proliferation as correlated with ^3HTdR incorporation was measured by liquid scintillation spectroscopy. Results are expressed as mean counts per minute (cpm) for triplicate cultures with standard deviation (SD; ±20% for all experiments).

[2] = tested on: PBMC; assay: Primary culture PBMC proliferation (polyclonal response); format: cell-based, human; conditions: primary cultures of PBMC
Description: as §1, with “At the end of the second week, lymphoblasts were restimulated for one week with rhev b 5/MBP at a concentration of 20 μg/ml as described above. Oligoclonal T cells were recovered, washed and tested in proliferation and cytokine assays (as described below) either fresh or after cryopreservation in liquid nitrogen. We have previously shown that CD4^+ T cells are preferentially expanded in these cultures.” left out

[3] = tested on: house dust mite specific three-week T cell line; format: cell-based
Description: Mitogenicity of latex antigens was excluded by testing the ability of LAL, rHev b 5/mBP and Hev b 5 peptides to stimulate a house dust mite specific three-week T cell line. No reactivity to latex allergens was observed (data not shown). Toxicity was assessed by coculturing the same antigens with house dust mite specific T cells in the presence of Lymphocult-T at 10 IU/ml.

[4] = tested on: serum IgE; assay: Dot immunoblot of patient serum IgE reactivity; format: binding, human; conditions: sera of latex allergic patients 1-6
Description: Patient serum IgE reactivity to latex allergens was analysed by dot immunoblots. LAL (25 μg), rHev b 5/MBP (7 μg) and MBP (4.5 μg) were applied side by side on a nitrocellulose membrane (Schleichner and Schuell, Germany) in a 5 μl volume and allowed to soak in. The amount of MBP was estimated to be equivalent to that in the rHev b 5/MBP aliquot. The membrane was then blocked, incubated in patient sera and IgE binding detected according to our established protocols (Suphioglu et al., 1993). Briefly, the blots were blocked in 10% w/v skim milk powder in PBS and washed once in PBS containing 0.2% v/v Tween 20 and twice in PBS alone. Blots were then incubated in patients' sera (diluted 1:4 in PBS/0.5% BSA) overnight at room temperature with shaking before washing as described above. Finally, IgE antibody binding was detected by incubation in rabbit anti-human IgE (Dako, Denmark) followed by horse radish peroxidase-labelled anti-rabbit antibodies (Promega, USA), washing in between, and developing in the substrate 4-chloro-1-napthol (Sigma) after the final wash.

[5] = Immune response of mice immunised with rHev b 5/MBP (serum ELISA); format: in vivo, BALB/c mice; conditions: 20 μg/injection IP; serum ELISA against rHev b 5/MBP, MBP and NAL
Description: Monoclonal antibody production was carried out based on the method of Köhler and Milstein (Köhler et al., 1975) according to established protocols (Goding, 1996). Six to 8 week old female BALB/c mice were immunised intraperitoneally (IP) with 20 μg/injection of rHev b 5/MBP diluted in 200 μl of phosphate buffered saline (PBS). The first injection was given with an equal volume (200 μl) of Complete Freund's Adjuvant (Sigma, USA), and the second with 200 μl of Incomplete Freund's Adjuvant (Sigma, USA). The subsequent 4 immunisations were given in phosphate buffered saline (PBS) alone. The initial 2 immunisations were given at a 2 weekly interval; the remainder were given at monthly intervals, with 100 μl of whole blood being taken before the first immunisation and at 5 days following each immunisation (except for the first) to monitor the immune response. The blood was then centrifuged, the serum removed, and aliquotted at −20° C. for later analysis using enzyme linked immunosorbent assay (ELISA) as below. The final booster immunisation of 20 μg of rHev b 5/MBP in 200 μl PBS was given IP 3 days before the mouse was humanly killed and the spleen aseptically removed, macerated and then fused with 10^7 murine myeloma cells (X-63.Ag8 cell line, generous gift of Professor Jim Goding). […] Colour development was then observed and the plate read at […]. […]

B1: rHev b 5/MBP: recombinant Hev b 5 as maltose binding protein (MBP) fusion protein (protein)
chain: ASVEVESAATALPKNETPEVTKAEETKTEEPAAPPASEQETADATPEKEEPTAAPAEPEAPAPETEKAEEVEKIEKTEEPAPEADQTTPEEKPAEPEPVAEEEPKHETKETETEAPAAPAEGEKPAEEEKPITEAAETATTEVPVEKTEE
modifications: left off: large carriers; small tags and cut ends
In the case of B1, the Oligoclonal proliferative response ([1]; P1 T cell line) is reported as 9.0 counts per minute × 10^−3, the Oligoclonal proliferative response ([1]; P2 T cell line) is reported as 5.7 counts per minute × 10^−3 and the “oligoclonal proliferative response (in words)” value ([1]; three-week latex specific T cell lines) is reported as “significantly higher than those of MBP alone”. The “polyclonal PBMC response (in words)” value [2] was “considerably less than those to LAL”, the “mitogenicity: stimulation of house dust mite specific T cell line” value [3] was “No reactivity” and the “serum IgE reactivity” value [4] was “patients 1, 2, 3, 4 and 5 showed IgE reactivity”. For the same molecule, the “immune response of immunised mice” value [5] was “strong polyclonal immune response”.
